A short description of data set [1]: Dicamba decarboxylation activity of computationally designed protein variants. The settings on record: native protein or designed variant versus parent.
Data set [2] can be described thus: Detection of 4-chloro-3-methoxy phenol product by LC-MS/MS. It is filed as biochemical. Conditions: purified protein. On the procedure:
The decarboxylated and chloro hydrolyzed product, 4-chloro-3-methoxy phenol (FIG. 1D), is measured using a LC-MS/MS analytical procedure. […] 10 ul is removed from the reaction mixture and mixed with 90 ul pre-chilled methanol followed by centrifugation at 14,000 rpm for 15 min at 4° C. 10 ul of the supernatant is then transferred into 170 ul ddH2O to achieve 5% methanol solution for injection. 50 ul of the prepared sample is injected into a 4000 Q Trap LC-MS/MS system for sample analysis. LC-MS/MS parameters are: Mobile Phase A, 2 mM ammonium acetate in water; Mobile Phase B, 2 mM ammonium acetate in methanol; Column, Aquasil, 100×2.1 mm, 3 μm, C18 column; Flow Rate, 0.6 ml/min. The MS/MS fragment 157/142 which is common to 4-chloro-3-methoxy phenol, 2-chloro-5-methoxy phenol, and 3-chloro-5-methoxy phenol is monitored at a retention time of 2.88 min.

Data set [3] can be described thus: Detection of 2,5-DCA product by toluene capture or head-space GC/MS. It is filed as biochemical. Conditions: purified protein, toluene capturing. On the procedure:
Alternatively, dicamba decarboxylase activity can be monitored by measuring decarboxylation products other than CO2 using product detection methods. The decarboxylation product of dicamba, 2,5-dichloro anisole or 2,5-DCA (FIG. 1C), is a volatile compound with a flash point of 21° C. To capture this volatile compound for detection, 140 ul of toluene solution is added on top of 1 ml reaction mixture to form a trapping layer in a 1.5 ml eppendorf tube. […] The reaction is kept still at room temperature overnight before being vortex mixed and centrifuged at 14,000 rpm for 15 minutes. The top toluene phase is carefully removed using a micropipette and transferred into a 12×32 mm polypropylene vial (Vial 11 mm) from MicroLiter Analytical Supplies, Inc. (catalog number 11-5300-100). The vial is sealed with Crimp seal (11 mm with FEP/Nat Rubber) from MicroLiter Analytical Supplies, Inc. (catalog number 11-0020A) using a E-Z Crimper™ 11 mm from Wheaton Inc. 1 ul of the toluene mixture is taken from the sealed vials and injected in splitless mode into a GC/MS system for sample analysis (Agilent GC/MS system with a 6890A GC, a 5973N MSD and a CTC CombiPAL auto-sampler or with a 7890A GC, a 5975C MSD and an Agilent GC Sampler 80 auto-sampler). The GC parameters are: Agilent DB-5MS column (30 m length, 0.25 mm diameter, 0.25 um film) or equivalent; The GC inlet temperature, 250° C.; Carry gas, helium in constant flow mode (1.2 mL/min); The GC oven temperature program, initial temperature at 70° C. for 1 min, ramping to 200° C. at 15° C./min, and then ramping to 250° C. at 30° C./min. MS data acquisition is done in SIM (selected ion monitoring) mode, monitoring the positive ion at M/Z 176 for the molecular ion of […]. The solvent delay for MS acquisition is set at 4 min. Another method for detection of 2,5-DCA is a head-space GC/MS method. Briefly, reaction mixtures in 500 ul reaction volume are prepared in 1.5 ml×32 mm glass vials (Microliter Analytical Supplies, Cat#11-1200) for head space analysis. Glass vials are sealed with magnetic cap from MicroLiter Analytical Supplies, Inc. (catalog number 11-0030AT) using a E-Z Crimper™ 11 mm from Wheaton Industries Inc. The reaction is carried out at room temperature for various amount of time and stopped by heating at 95° C. for 5 min. The reaction vial is transferred to a agitator for incubation at 80° C. for 5 min at 500 rpm. With a syringe preheated at 80° C., 1000 uL of head space is injected with sample fill speed at 100 uL/sec. GC/MS parameters for headspace analysis are the same as for liquid sample analysis.

Data set [4] in a line: Detection of 2,5-DCP product by GC/MS. It counts as biochemical. Conditions: purified protein. On the procedure:
The decarboxylated and demethylated product of dicamba, 2,5-dichloro phenol or 2,5-DCP (FIG. 1E) is measured using a GC/MS analytical procedure with either liquid injection after liquid/liquid extraction using toluene as the extraction solvent or gas injection using head space method. The head space sample analysis is carried out on an Agilent GC/MS system with a 6890A GC, a 5973N MSD and a CTC CombiPAL auto-sampler or with a 7890A GC, a 5975C MSD and an Agilent GC Sampler 80 auto-sampler with Phenomenex ZB-MultiResidue-1 column (30 m length, 0.25 mm diameter, 0.25 um film) or equivalent. GC/MS parameters are: GC inlet temperature, 200° C.; Carry gas, helium in constant flow mode (1.2 mL/min); Oven temperature program, 70° C. for 1 min and then ramp to 275° C. at 40° C./min. […] The reaction vial is transferred to a agitator for incubation at 90° C. for 4 min at 500 rpm. With a syringe preheated at 110° C., 1000 uL of head space is injected with sample fill speed at 100 uL/sec. A 2-mm diameter liner is used in sample inlet. The MS data acquisition is done in SIM (selected ion monitoring) mode. The positive ion at M/Z 162 for the molecular ion of 2,-5-DCP is monitored at retention time of 4.06 min. Solvent delay for MS acquisition is set at 3 min. GC/MS parameters for liquid sample analysis are the same as those for head space analysis, except that the volume of liquid injection is 1 uL.

Data set [5] is described as follows: 14C assay with purified protein (14CO2 captured on Ca(OH)2 filter paper). It counts as biochemical. Conditions: [14C]-carboxyl-labeled dicamba.

B1: SEQ ID NO:121: Design variant of SEQ ID NO: 100 (protein)
chain: MAIIDCHGHYTTTPKGVEDYRNAQKAAVAKDPSFKGEKGQVVVSDDEIRESIENNQLKMQRERGTDLTIFSPRWDAGGHHIGNEYTSQFWTEHQNDLIRRVCDLFPKNFAPVAQLPQSPGVDPAKSVPEIVRTVEQMGFIGINLNPDPSGGYWKDTSLADRAFYPIYEKMVEYDIPAMIHPRLACNACFHTGLSVGLGADTTGFQQLIMSDVFKDFPSLKIIIPHGGGAVPYHWGRFRGLMQDQGYAPLEESALKNIYFDTCVYHQRGIDLLLDIVPTQNILFASEMIGAVRGIDPETGHNFDDTKRYIDNNTALNAEEKAMIFEGNARRVFSRLKTD
modifications: Dicamba decarboxylase variant clone DC.12.014
Regarding B1, the “Dicamba Decarboxylase Activity” value in data set [1] is reported as “have dicamba decarboxylase activity”. In addition, the 4-chloro-3-methoxy phenol product entry in data set [2] was “not detected”. Further, the “2,5-DCA product” value in data set [3] is reported as “detected”. Besides, in data set [4], the “2,5-DCP product” value is listed as “not detected”. The CO2 product result in data set [5] is “not detected”.

B2: SEQ ID NO:120: Design variant of SEQ ID NO: 100 (protein)
chain: MAIIDCHGHYTTTPKGVETYRNAQKAAVAKDPSFKYEKGQVVVSDDEIRESIENNQLKMQRERGTDLTIFSPRSTAGGHHIGNEYTSQFWTEHQNDLIRRVCDLFPKNFAPVAQLPQSPGVDPAKSVPEIVRTVEQMGFIGINLNPDPSGGYWKDTSLADRAFYPIYEKMVEYDIPAMIHPRNACNDCFHTTGSHALGADTTGFQQLIMSDVFKDFPSLKIIIPHGGGAVPYHWGRFRGLMQDQGYAPLEESALKNIYFDTCVYHQRGIDLLLDIVPTQNILFASEMIGAVRGIDAETGHNFDDTKRYIDNNTALNAEEKAMIFEGNARRVFSRLKTD
modifications: Dicamba decarboxylase variant clone DC.12.002
As to B2, the “Dicamba Decarboxylase Activity” value in data set [1] is on record as “have dicamba decarboxylase activity”. Further, the 4-chloro-3-methoxy phenol product entry in data set [2] is listed as “not detected”. The “2,5-DCA product” value in data set [3] is recorded as “detected”. Further, in data set [4], the “2,5-DCP product” value is “not detected”. Also, in data set [5], the CO2 product result was “not detected”.

B3: SEQ ID NO:122: Design variant of SEQ ID NO: 100 (protein)
chain: MAIIDCHGHYTTTPKGVEDYRNAQKAAVAKDPSFKGEKGQVVVSDDEIRESIENNQLKMQRERGTDLTIFSPRSTAGGHHIGNEYTSQFWTEHQNDLIRRVCDLFPKNFAPVAQLPQSPGVDPAKSVPEIVRTVEQMGFIGINLNPDPSGGYWKDTSLADRAFYPIYEKMVEYDIPAMIHPRNACNDCFHTTGSHALGADTTGFQQLIMSDVFKDFPSLKIIIPHGGGAVPYHWGRFRGLMQDQGYAPLEESALKNIYFDTCVYHQRGIDLLLDIVPTQNILFASDMIGAVRGIDPETGHNFDDTKRYIDNNTALNAEEKAMIFEGNARRVFSRLKTD
modifications: Dicamba decarboxylase variant clone DC.12.103
Consider B3, for which the “Dicamba Decarboxylase Activity” value in data set [1] is reported as “have dicamba decarboxylase activity”. In data set [2], the 4-chloro-3-methoxy phenol product entry was “not detected”. For the same molecule, the “2,5-DCA product” value in data set [3] is given as “detected”. Further, in data set [4], the “2,5-DCP product” value is “not detected”. In addition, the CO2 product entry in data set [5] is recorded as “not detected”.

B4: SEQ ID NO:117: Design variant of SEQ ID NO: 95 (protein)
chain: MAKKPRIDMHSHFFPRISEQEAAKFDANHAPWLQVSAKGDTGSIMMGKNNFRPVYQALWDPAFRIEEMDAQGVDVQVTCATPVMFGYTWEANKAAQWAERMNDFALEFAAHNPQRIKVLAQVPLQDLDLACKEASRAVAAGHLGIQIGNHLGDKDLDDATLEAFLTHCANEDIPILVHPWDMMGGQRMKKWMLPVLVAAPAEVQLAILSLILSGAFERIPKSLKICFAGGGGSFAFLLGIVDLAWRHRDIVREDCPRPPSEYVDRFFVDSLVFNPGALELLVSVMGEDRVMLGSDYPFPTGEQKIGGLVLSSNLGESAKDKIISGNASKFFNINV
modifications: Dicamba decarboxylase variant clone DC.5.008
Consider B4, for which the “Dicamba Decarboxylase Activity” value in data set [1] was “have dicamba decarboxylase activity”. Further, the 4-chloro-3-methoxy phenol product entry in data set [2] is “not detected”. Also, the “2,5-DCA product” value in data set [3] is reported as “detected”. Also, in data set [4], the “2,5-DCP product” value is listed as “not detected”. In addition, in data set [5], the CO2 product entry is “not detected”.

B5: SEQ ID NO:118: Design variant of SEQ ID NO: 95 (protein)
chain: MAKKPRIDMHSHFFPRISEQEAAKFDANHAPWLQVSAKGDTGSIMMGKNNFQPVYQALWDPAFRIEEMDAQGVDVQVTCATPVMFGYTWEANKAAQWAERMNDFALEFAAHNPQRIKVLAQVPLQDLDLACKEASRAVAAGHLGIQIGNHLGDKDLDDATLEAFLTHCANEDIPILVHGTDMMGGQRMKKWGLPWLVALAAEVQLAILSLILSGAFERIPKSLKICFSHGGGSFAFLLGLVDEAWRHVDIVREDCPRPPSEYVDRFFVDSVGNPGALELLVSVMGEDRVMLGSDYPHTTGEQKIGGLVLSSNLGESAKDKIISGNASKFFNINV
modifications: Dicamba decarboxylase variant clone DC.5.033
For the molecule B5, the “Dicamba Decarboxylase Activity” value in data set [1] is listed as “have dicamba decarboxylase activity”. The 4-chloro-3-methoxy phenol product entry in data set [2] is “not detected”. Also, the “2,5-DCA product” value in data set [3] was “detected”. For the same molecule, the “2,5-DCP product” value in data set [4] is given as “not detected”. Further, the CO2 product result in data set [5] is “not detected”.

B6: SEQ ID NO:119: Design variant of SEQ ID NO: 95 (protein)
chain: MAKKPRIDMHSHFFPRISEQEAAKFDANHAPWLQVSAKGDTGSIMMGKNNFQPVYQALWDPAFRIEEMDAQGVDVQVTCATPVMFGYTWEANKAAQWAERMNDFALEFAAHNPQRIKVLAQVPLQDLDLACKEASRAVAAGHLGIQIGNHLGDKDLDDATLEAFLTHCANEDIPILVHGWDMMGGQRMKKWGLYWLVAHHAEVQLAILSLILSGAFERIPKSLKICFSHGGGSFAFTLGWVDEAWRHVDIVREDCPRPPSEYVDRFFVDSVGNPGALELLVSVMGEDRVMLGSDYPLTTGEQKIGGLVLSSNLGESAKDKIISGNASKFFNINV
modifications: Dicamba decarboxylase variant cloneDC.5.034
For B6, the “Dicamba Decarboxylase Activity” value in data set [1] was “have dicamba decarboxylase activity”. Also, the 4-chloro-3-methoxy phenol product result in data set [2] is “not detected”. Further, the “2,5-DCA product” value in data set [3] is “detected”. For the same molecule, the “2,5-DCP product” value in data set [4] was “not detected”. For the same molecule, in data set [5], the CO2 product entry was “not detected”.

The values are drawn from patent publication US20140287419A1, “Compositions Having Dicamba Decarboxylase Activity and Methods of Use” (priority 2013, published 2014).
